A word on the Kd: it is the concentration at which binding is half-saturated.

Common to all, as to experiment: SPR
For orientation: SPR reads the build-up and loss of mass on a sensor chip optically.

The target of one assay is T1, FcgRIIb (human, UniProt P31994).
T1 chain: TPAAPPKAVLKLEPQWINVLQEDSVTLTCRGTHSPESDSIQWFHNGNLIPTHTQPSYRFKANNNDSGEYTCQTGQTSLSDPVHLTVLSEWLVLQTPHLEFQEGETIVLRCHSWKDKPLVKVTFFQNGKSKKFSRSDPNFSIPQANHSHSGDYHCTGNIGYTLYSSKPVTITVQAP

The target of a further assay is T2, FcgRIIa H (human, UniProt P12318).
T2 chain: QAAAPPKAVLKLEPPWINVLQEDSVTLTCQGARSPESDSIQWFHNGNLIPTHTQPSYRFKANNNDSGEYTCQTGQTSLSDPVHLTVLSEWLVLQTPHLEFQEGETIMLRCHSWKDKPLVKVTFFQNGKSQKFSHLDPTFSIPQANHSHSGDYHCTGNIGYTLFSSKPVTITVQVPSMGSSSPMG

A further assay deals with FcgRIIIa V (human, UniProt P08637).
For a further assay, the target named is FcgRIIIa F (human, UniProt P08637).
A further assay addresses T3, FcgRIa (human, UniProt P12314).
T3 chain: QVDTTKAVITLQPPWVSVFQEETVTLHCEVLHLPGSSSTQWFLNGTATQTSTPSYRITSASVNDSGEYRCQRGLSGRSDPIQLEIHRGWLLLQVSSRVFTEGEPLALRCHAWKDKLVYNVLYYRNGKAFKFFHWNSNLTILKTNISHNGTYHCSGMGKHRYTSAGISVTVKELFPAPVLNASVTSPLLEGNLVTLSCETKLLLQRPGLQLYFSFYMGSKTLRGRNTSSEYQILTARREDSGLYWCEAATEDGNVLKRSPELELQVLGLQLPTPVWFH

The next assay addresses T4, FcgRIIa R (human, UniProt P12318).
T4 chain: T2 chain with H134R

Positions count from the first letter of the chain named.

FcgRIIIa V, sequence (P08637 17-208 F176V): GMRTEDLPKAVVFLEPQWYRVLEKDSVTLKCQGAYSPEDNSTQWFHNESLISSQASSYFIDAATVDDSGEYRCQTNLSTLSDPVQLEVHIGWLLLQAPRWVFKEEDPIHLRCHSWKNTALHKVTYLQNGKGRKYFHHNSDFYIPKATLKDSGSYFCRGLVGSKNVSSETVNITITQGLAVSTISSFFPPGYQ
FcgRIIIa F, sequence (P08637 17-208): as the sequence (P08637 17-208 F176V) above, with V160F counted along it

B1: H240-Kn216/H240-Hl068/L73-k0 (antibody)
chain 1: QDQLVQSGAEVKKPGASVKVSCKASGFNIKDTYIQWVRQAPGQGLEWMGRIDPLRKQTKYREKFEGRVTITADTSTNTAYMELSSLRSEDTAVYYCVRSGREFDYWGQGTLVTVSSASTKGPSVFPLAPSSKSTSGGTAALGCLVKDYFPEPVTVSWNSGALTSGVHTFPAVLQSSGLYSLSSVVTVPSSSLGTQTYICNVNHKPSNTKVDKKVEPKSCDKTHTCPPCPAPEVYWGPMVFLFPPKPKDTLMISRTPEVTCVVVDVSDEDPEVKFNWYVDGVEVHNAKTKPREEQYNATYRVVSVLTVLHQDWLNGKEYKCKVSNKDLPAPIEKTISKAKGQPREPQVCTLPPSRDELTKNQVSLWCLVKGFYPSDIAVEWESNGQPENNYKTTPPVLDSDGSFFLYSKLTVDKSRWQQGNVFSCSVMHEALHNHYTQKSLSLSP
chain 2: QDQLVQSGAEVKKPGASVKVSCKASGFNIKDTYIQWVRQAPGQGLEWMGRIDPLRKQTKYREKFEGRVTITADTSTNTAYMELSSLRSEDTAVYYCVRSGREFDYWGQGTLVTVSSASTKGPSVFPLAPSSKSTSGGTAALGCLVKDYFPEPVTVSWNSGALTSGVHTFPAVLQSSGLYSLSSVVTVPSSSLGTQTYICNVNHKPSNTKVDKKVEPKSCDKTHTCPPCPAPELLGGPSVFLFPPKPKDTLMISRTPEVTCVVVDVSHEEPEVKFNWYVDGVEVHNAKTKPREEQYNSTYRVVSVLTVLHQDWLNGKEYKCKVSNDALPKPIEETISKAKGQPREPQVYTLPPSRCELTKNQVSLSCAVKGFYPSDIAVEWESNGQPENNYKTTPPVLDSDGSFFLVSKLTVDKSRWQQGNVFSCSVMHEALHNHYTQKSLSLSP
chain 3: DIQMTQSPSSLSASVGDRVTITCRASQDIHKYIAWYQQKPGQAPRLLIQYTSTLQPGVPSRFSGSGSGTDYTFTISSLQPEDIATYYCLQYEQLRTFGGGTKVEIKRTVAAPSVFIFPPSDEQLKSGTASVVCLLNNFYPREAKVQWKVDNALQSGNSQESVTEQDSKDSTYSLSSTLTLSKADYEKHKVYACEVTHQGLSSPVTKSFNRGEC
For the molecule B1, the Kd was 160 nM with FcgRIIb; 32 nM in the assay with FcgRIIa H; 0.46 nM with FcgRIIIa V; 3.4 nM in the assay with FcgRIIIa F; 0.17 nM with FcgRIa; 23 nM with FcgRIIa R.

B2: H240-Kn224/H240-Hl068/L73-k0 (antibody)
chain 1: B1 chain 1 with V233H
chain 2: B1 chain 2
chain 3: B1 chain 3
Regarding B2, the equilibrium dissociation constant (Kd) was 360 nM with FcgRIIb; 57 nM with FcgRIIa H; 0.53 nM with FcgRIIIa V; 4 nM with FcgRIIIa F; 0.14 nM in the assay with FcgRIa; 54 nM with FcgRIIa R.

B3: H240-Kn205/H240-Hl212/L73-k0 (antibody)
chain 1: B1 chain 1 with V233Y, Y234L, W235G, M238S, D267H, Y295W, A297C, D326A
chain 2: B1 chain 2 with S238D, E269D, D325K, K329A, E333V
chain 3: B1 chain 3
Consider B3, for which the Kd with FcgRIIb was found to be 1600 nM; in the assay with FcgRIIa H, 370 nM; with FcgRIIIa V, 4.2 nM; with FcgRIIIa F, 12 nM; in the assay with FcgRIa, 0.054 nM; with FcgRIIa R it was 610 nM.

B4: H240-Kn207/H240-Hl076/L73-k0 (antibody)
chain 1: B1 chain 1 with Y234Q, D269E, D326A
chain 2: B1 chain 2 with K329M
chain 3: B1 chain 3
For the molecule B4, the Kd in the assay with FcgRIIb worked out at 5200 nM; with FcgRIIa H it was 170 nM; with FcgRIIIa V, 0.49 nM; in the assay with FcgRIIIa F it was 1.9 nM; in the assay with FcgRIa, 0.085 nM; in the assay with FcgRIIa R, 680 nM.

B5: H240-Kn204/H240-Hl211/L73-k0 (antibody)
chain 1: B1 chain 1 with V233Y, Y234L, W235G, M238S, D267H, K289Y, Y295W, A297S, D326A
chain 2: B1 chain 2 with S238D, E269D, D325K, K329M, E333V
chain 3: B1 chain 3
In the case of B5, the Kd in the assay with FcgRIIb was 1300 nM; with FcgRIIa H, 760 nM; with FcgRIIIa V, 7.4 nM; with FcgRIIIa F it was 14 nM; with FcgRIa, 0.038 nM; with FcgRIIa R it was 640 nM.

B6: H240-Kn220/H240-Hl068/L73-k0 (antibody)
chain 1: B1 chain 1 with V233M
chain 2: B1 chain 2
chain 3: B1 chain 3
For B6, the Kd with FcgRIIb turned out to be 160 nM; in the assay with FcgRIIa H, 34 nM; with FcgRIIIa V it was 0.5 nM; with FcgRIIIa F it was 3.5 nM; in the assay with FcgRIa it was 0.15 nM; with FcgRIIa R, 25 nM.

B7: H240-Kn213/H240-Hl076/L73-k0 (antibody)
chain 1: B1 chain 1 with V233A, Y234Q, D269E, D326A
chain 2: B1 chain 2 with K329M
chain 3: B1 chain 3
Consider B7, for which the Kd stood at 6100 nM with FcgRIIb; 210 nM with FcgRIIa H; 0.73 nM with FcgRIIIa V; 2.6 nM in the assay with FcgRIIIa F; 0.082 nM with FcgRIa; 820 nM with FcgRIIa R.

B8: H240-Kn208/H240-Hl076/L73-k0 (antibody)
chain 1: B1 chain 1 with V233D, Y234Q, D269E, D326A
chain 2: B1 chain 2 with K329M
chain 3: B1 chain 3
Turning to B8, the Kd with FcgRIIb was 3200 nM; with FcgRIIa H, 310 nM; with FcgRIIIa V, 0.4 nM; in the assay with FcgRIIIa F, 1.8 nM; in the assay with FcgRIa, 0.1 nM; with FcgRIIa R, 500 nM.

B9: H240-Kn215/H240-Hl076/L73-k0 (antibody)
chain 1: B1 chain 1 with V233H, Y234Q, D269E, D326A
chain 2: B1 chain 2 with K329M
chain 3: B1 chain 3
B9: the Kd with FcgRIIb was determined as 6100 nM; with FcgRIIa H it was 250 nM; with FcgRIIIa V, 0.68 nM; with FcgRIIIa F it was 2.6 nM; with FcgRIa, 0.089 nM; in the assay with FcgRIIa R, 1000 nM.

B10: H240-Kn221/H240-Hl068/L73-k0 (antibody)
chain 1: B1 chain 1 with V233T
chain 2: B1 chain 2
chain 3: B1 chain 3
On to B10, for which the Kd in the assay with FcgRIIb was found to be 220 nM; with FcgRIIa H it was 44 nM; in the assay with FcgRIIIa V, 0.47 nM; with FcgRIIIa F, 2.7 nM; in the assay with FcgRIa, 0.18 nM; in the assay with FcgRIIa R it was 29 nM.

B11: H240-Kn222/H240-Hl068/L73-k0 (antibody)
chain 1: B1 chain 1 with V233A
chain 2: B1 chain 2
chain 3: B1 chain 3
On to B11, for which the Kd in the assay with FcgRIIb was found to be 190 nM; with FcgRIIa H it was 49 nM; in the assay with FcgRIIIa V, 0.54 nM; in the assay with FcgRIIIa F, 3.3 nM; with FcgRIa it was 0.14 nM; with FcgRIIa R it was 28 nM.

B12: H240-Kn218/H240-Hl068/L73-k0 (antibody)
chain 1: B1 chain 1 with V233Q
chain 2: B1 chain 2
chain 3: B1 chain 3
For the molecule B12, the Kd worked out at 220 nM in the assay with FcgRIIb; 33 nM with FcgRIIa H; 0.5 nM in the assay with FcgRIIIa V; 3.5 nM with FcgRIIIa F; 0.14 nM with FcgRIa; 37 nM with FcgRIIa R.

B13: H240-Kn198/H240-Hl076/L73-k0 (antibody)
chain 1: B1 chain 1 with V233L, Y234Q, D269E, D326A
chain 2: B1 chain 2 with K329M
chain 3: B1 chain 3
For the molecule B13, the Kd with FcgRIIb came out at 6300 nM; with FcgRIIa H, 140 nM; with FcgRIIIa V it was 0.54 nM; in the assay with FcgRIIIa F it was 1.5 nM; with FcgRIa it was 0.083 nM; in the assay with FcgRIIa R, 630 nM.

B14: H240-Kn189/H240-Hl068/L73-k0 (antibody)
chain 1: B1 chain 1 with V233S
chain 2: B1 chain 2
chain 3: B1 chain 3
B14: the Kd in the assay with FcgRIIb turned out to be 150 nM; with FcgRIIa H it was 48 nM; with FcgRIIIa V, 0.52 nM; with FcgRIIIa F, 3.2 nM; with FcgRIa, 0.16 nM; in the assay with FcgRIIa R it was 23 nM.

B15: H240-Kn211/H240-Hl076/L73-k0 (antibody)
chain 1: B1 chain 1 with V233M, Y234Q, D269E, D326A
chain 2: B1 chain 2 with K329M
chain 3: B1 chain 3
Regarding B15, the Kd with FcgRIIb amounted to 4200 nM; in the assay with FcgRIIa H it was 200 nM; with FcgRIIIa V it was 0.52 nM; with FcgRIIIa F it was 1.9 nM; with FcgRIa, 0.084 nM; with FcgRIIa R, 550 nM.

These data come from US10766960 (dated 2020).
